This note sets out measurements from patent publication US20050079494A1 (MONSANTO TECHNOLOGY, published 2005).

Data set [1] deals with the molecule itself. In words: self-assembly in E. coli; 5-25% sucrose density gradient, SDS-PAGE with Coomassie staining. As for the experimental part:
(§1) To characterize the expression of the wild-type and epitope-tagged (mature) glycinin A₁ₐB1b protein in E. coli, plasmids pMON65950, pMON65951, and pMON65952 are transformed into E. coli Origami™ (DE3) competent cells according to manufacturer's instructions (Novagen). A single colony is used to inoculate 2 ml LB medium. The culture is grown at 37° C. until a cell density corresponding to A₆₀₀=0.6 is achieved. An amount corresponding to a final concentration of 1 mM isopropyl-1-thio-β-D-galactopyranoside (IPTG) is added to induce protein expression and the culture is incubated at temperatures ranging from 20° to 37° C. at 225 rpm for time periods up to 20 hours. Cells are harvested by centrifugation at 5,000 rpm for 15 min at 4° C. The cell pellet is re-suspended in protein extraction buffer consisting of 20 mM Tris-HCl, pH 7.4, 0.4 M NaCl, 0.1% TritonX-100, 40 μl/ml Protease Inhibitor Cocktail, (stock: 1 tablet/2 ml, Boehringer Mannheim, Indianapolis, Ind.). The cells are then disrupted by sonication (Branson Sonifier 450, Branson Precision Processing, Danbury, Conn.) while maintaining at cold temperature with ice. Soluble proteins are separated from the insoluble fraction by centrifugation at 13,000 rpm for 5 minutes. […]

Data set [2] deals with the molecule itself. In words: self-assembly in E. coli; 5-25% sucrose density gradient, SDS-PAGE with Coomassie or anti-FLAG M2 western blot. As to the method: as §1
(A western blot detects proteins with antibodies after separation by electrophoresis.)

Data set [3] deals with the molecule itself. In words: self-assembly in E. coli; sucrose density gradient, anti-FLAG western blot of fractions. As for the experimental part:
To determine if the recombinant forms of glycinin A₁ₐB1b expressed in E. coli from […], pMON65951, and pMON65952 could self-assemble to form trimers, aliquots of the soluble protein fraction from E. coli lysates are layered onto 12 ml of a 5-25% sucrose density gradient, and centrifuged at 36,000 rpm for 17.5 hours at 20° C. (Sorvall TH-641 rotor; Sorvall Ultra Pro 80 ultracentrifuge). Following centrifugation, the gradient is divided into fractions using a Labconco Autodensi-Flow instrument (Labconco, Kansas City, Mo.), and each fraction is analyzed by SDS-polyacrylamide gel electrophoresis followed either by Coomassie staining or by western blot analysis using Anti-FLAG M2 antibody (Stratagene Corporation, La Jolla, Calif.), to determine which fractions contained glycinin A₁ₐB1b. 7S and 11S soy protein fractions, as well as ovalbumin (45 kD) and aldolase (158 kD), are run as size markers on separate gradients.
This example sets forth confirmation of the protein structure from the expression of modified glycinin A₁ₐB1b clones. The assembly properties of the following modified forms of the protein (indicated by mutant ID number), each containing a different isoleucine substitution, are determined as described in Example 3. Western blot analysis of sucrose gradient fractions is carried out as in Example 3 using anti-FLAG antibody for each of mutants G1-4 through G13-2.

B1: mature form (plus additional methionine encoded by start codon) of glycinin A1aB1b encoded by pMON65950 (other)
chain: MFSSREQPQQNECQIQKLNALKPDNRIESEGGLIETWNPNNKPFQCAGVALSRCTLNRNALRRPSYTNGPQEIYIQQGKGIFGMIYPGCPSTFEEPQQPQQRGQSSRPQDRHQKIYNFREGDLIAVPTGVAWWMYNNEDTPVVAVSIIDTNSLENQLDQMPRRFYLAGNQEQEFLKYQQEQGGHQSQKGKHQQEEENEGGSILSGFTLEFLEHAFSVDKQIAKNLQGENEGEDKGAIVTVKGGLSVIKPPTDEQQQRPQEEEEEEEDEKPQCKGKDKHCQRPRGSQSKSRRNGIDETICTMRLRHNIGQTSSPDIYNPQAGSVTTATSLDFPALSWLRLSAEFGSLRKNAMFVPHYNLNANSIIYALNGRALIQVVNCNGERVFDGELQEGRVLIVPQNFVVAARSQSDNFEYVSFKTNDTPMIGTLAGANSLLNALPEEVIQHTFNLKSQQARQIKNNNPFKFLVPPQESQKRAVA
notes: Soybean seed storage protein subunit made in E. coli Origami (DE3), no FLAG tag; also called wild-type (mature) glycinin A1aB1b; native form
As for B1, in data set [1], the binding result is listed as “binds”.

B2: amino-terminal epitope (FLAG)-tagged form of glycinin A1aB1b encoded by pMON65951 (other)
chain: MDYKDDDDKFSSREQPQQNECQIQKLNALKPDNRIESEGGLIETWNPNNKPFQCAGVALSRCTLNRNALRRPSYTNGPQEIYIQQGKGIFGMIYPGCPSTFEEPQQPQQRGQSSRPQDRHQKIYNFREGDLIAVPTGVAWWMYNNEDTPVVAVSIIDTNSLENQLDQMPRRFYLAGNQEQEFLKYQQEQGGHQSQKGKHQQEEENEGGSILSGFTLEFLEHAFSVDKQIAKNLQGENEGEDKGAIVTVKGGLSVIKPPTDEQQQRPQEEEEEEEDEKPQCKGKDKHCQRPRGSQSKSRRNGIDETICTMRLRHNIGQTSSPDIYNPQAGSVTTATSLDFPALSWLRLSAEFGSLRKNAMFVPHYNLNANSIIYALNGRALIQVVNCNGERVFDGELQEGRVLIVPQNFVVAARSQSDNFEYVSFKTNDTPMIGTLAGANSLLNALPEEVIQHTFNLKSQQARQIKNNNPFKFLVPPQESQKRAVA
notes: Mature glycinin A1aB1b with start Met and N-terminal FLAG, made in E. coli; self-assembles to trimers; also called pMON65951 protein
In the case of B2, in data set [2], the binding result was “binds”.

B3: carboxy-terminal epitope (FLAG)-tagged form of glycinin A1aB1b encoded by pMON65952 (other)
chain: MFSSREQPQQNECQIQKLNALKPDNRIESEGGLIETWNPNNKPFQCAGVALSRCTLNRNALRRPSYTNGPQEIYIQQGKGIFGMIYPGCPSTFEEPQQPQQRGQSSRPQDRHQKIYNFREGDLIAVPTGVAWWMYNNEDTPVVAVSIIDTNSLENQLDQMPRRFYLAGNQEQEFLKYQQEQGGHQSQKGKHQQEEENEGGSILSGFTLEFLEHAFSVDKQIAKNLQGENEGEDKGAIVTVKGGLSVIKPPTDEQQQRPQEEEEEEEDEKPQCKGKDKHCQRPRGSQSKSRRNGIDETICTMRLRHNIGQTSSPDIYNPQAGSVTTATSLDFPALSWLRLSAEFGSLRKNAMFVPHYNLNANSIIYALNGRALIQVVNCNGERVFDGELQEGRVLIVPQNFVVAARSQSDNFEYVSFKTNDTPMIGTLAGANSLLNALPEEVIQHTFNLKSQQARQIKNNNPFKFLVPPQESQKRAVADYKDDDDK
notes: Mature glycinin A1aB1b with C-terminal FLAG, made in E. coli; self-assembles to trimers; Template of the isoleucine mutants; also called pMON65952 protein
Consider B3, for which the binding result in data set [2] is on record as “binds”.

B4: glycinin A1aB1b mutant g3-5 (other)
chain: FSSREQPQQNECQIQKLNAIKPDNRIESEGGLIETWNPNNKPFQCAGVALSRCTLNRNALRRPSYTNGPQEIYIQQGKGIFGMIYPGCPSTFEEPQQPQQRGQSSRPQDRHQKIYNFREGDIIAVPTGVAWWMYNNEDTPVVAVSIIDTNSIENQLDQMPRRFYLAGNQEQEFLKYQQEQGGHQSQKGKHQQEEENEGGSILSGFTLEFLEHAFSVDKQIAKNLQGENEGEDKGAIVTVKGGLSVIKPPTDEQQQRPQEEEEEEEDEKPQCKGKDKHCQRPRGSQSKSRRNGIDETICTMRLRHNIGQTSSPDIYNPQAGSVTTATSLDFPAISWLRLSAEFGSIRKNAMFVPHYNLNANSIIYAINGRALIQVVNCNGERVFDGELQEGRVLIVPQNFVVAARSQSDNFEYVSFKTNDTPMIGTLAGANSLLNALPEEVIQHTFNLKSQQARQIKNNNPFKFLVPPQESQKRAVADYKDDDDK
As for B4, the binding result in data set [3] is reported as “no binding”.

B5: glycinin A1aB1b mutant g6-4 (other)
chain: FSSREQPQQNECQIQKLNAIKPDNRIESEGGLIETWNPNNKPFQCAGVALSRCTLNRNALRRPSYTNGPQEIYIQQGKGIFGMIYPGCPSTFEEPQQPQQRGQSSRPQDRHQKIYNFREGDLIAVPTGVAWWMYNNEDTPVVAVSIIDTNSIENQLDQMPRRFYLAGNQEQEFLKYQQEQGGHQSQKGKHQQEEENEGGSILSGFTLEFLEHAFSVDKQIAKNLQGENEGEDKGAIVTVKGGLSVIKPPTDEQQQRPQEEEEEEEDEKPQCKGKDKHCQRPRGSQSKSRRNGIDETICTMRLRHNIGQTSSPDIYNPQAGSVTTATSLDFPAISWLRLSAEFGSIRKNAMFVPHYNLNANSIIYAINGRALIQVVNCNGERVFDGELQEGRVLIVPQNFVVAARSQSDNFEYVSFKTNDTPMIGTLAGANSLLNALPEEVIQHTFNLKSQQARQIKNNNPFKFLVPPQESQKRAVADYKDDDDK
Consider B5, for which the binding result in data set [3] is “no binding”.

B6: glycinin A1aB1b mutant g6-7 (other)
chain: FSSREQPQQNECQIQKLNAIKPDNRIESEGGLIETWNPNNKPFQCAGVALSRCTLNRNALRRPSYTNGPQEIYIQQGKGIFGMIYPGCPSTFEEPQQPQQRGQSSRPQDRHQKIYNFREGDIIAVPTGVAWWMYNNEDTPVVAVSIIDTNSLENQLDQMPRRFYLAGNQEQEFLKYQQEQGGHQSQKGKHQQEEENEGGSILSGFTLEFLEHAFSVDKQIAKNLQGENEGEDKGAIVTVKGGLSVIKPPTDEQQQRPQEEEEEEEDEKPQCKGKDKHCQRPRGSQSKSRRNGIDETICTMRLRHNIGQTSSPDIYNPQAGSVTTATSLDFPAISWLRLSAEFGSIRKNAMFVPHYNLNANSIIYAINGRALIQVVNCNGERVFDGELQEGRVLIVPQNFVVAARSQSDNFEYVSFKTNDTPMIGTLAGANSLLNALPEEVIQHTFNLKSQQARQIKNNNPFKFLVPPQESQKRAVADYKDDDDK
On to B6, for which, in data set [3], the binding result is listed as “no binding”.

B7: glycinin A1aB1b mutant g10-10 (other)
chain: FSSREQPQQNECQIQKLNALKPDNRIESEGGLIETWNPNNKPFQCAGVALSRCTLNRNAIRRPSYTNGPQEIYIQQGKGIFGMIYPGCPSTFEEPQQPQQRGQSSRPQDRHQKIYNFREGDLIAVPTGVAWWMYNNEDTPVVAVSIIDTNSLENQLDQMPRRFYLAGNQEQEFLKYQQEQGGHQSQKGKHQQEEENEGGSILSGFTLEFLEHAFSVDKQIAKNLQGENEGEDKGAIVTVKGGLSVIKPPTDEQQQRPQEEEEEEEDEKPQCKGKDKHCQRPRGSQSKSRRNGIDETICTMRIRHNIGQTSSPDIYNPQAGSVTTATSLDFPALSWIRLSAEFGSLRKNAMFVPHYNLNANSIIYALNGRALIQVVNCNGERVFDGELQEGRVIIVPQNFVVAARSQSDNFEYVSFKTNDTPMIGTLAGANSLLNALPEEVIQHTFNLKSQQARQIKNNNPFKFLVPPQESQKRAVADYKDDDDK
In the case of B7, in data set [3], the binding result is “no binding”.
